Drawing on publication PMC9969015, this text covers response for three substances.

The target of this experiment is integrins on T cells. The experiment in a line: flow cytometry on cells. The conditions noted are these: read off a plot.

As for “S-RBD protein with C-terminal human Fc-tag (receptor-binding domain of SARS-CoV-2 S protein) D405E”, the response came out at 5 MFI (parent: est. 21) and 6.5 MFI (parent: est. 36).

In the case of “S-RBD protein with C-terminal human Fc-tag (receptor-binding domain of SARS-CoV-2 S protein) D442E”, the response runs as follows: (parent: est. 21) 8 MFI; (parent: est. 36) 9 MFI.

As to “S-RBD protein with C-terminal human Fc-tag (receptor-binding domain of SARS-CoV-2 S protein) D586E”, the response by setting is: (parent: est. 21) 2 MFI; (parent: est. 36) 2.5 MFI.
